Experimental data taken from publication doi:10.1101/2024.04.30.591959, “Structural insights into human propionyl-CoA carboxylase (PCC) and 3-methylcrotonyl-CoA carboxylase (MCC)” (bioRxiv, 2024).
Values belong to the binder of their own block, whether it stands above or below them.

How the values were obtained:
Experiment in all cases: cryo-EM structure; endogenous holoenzymes co-purified from Expi 293F cells as a mixture of biotin-dependent carboxylases; HBS buffer (20 mM HEPES, pH 7.4, 150 mM NaCl); apo, or pre-incubated with 25 mM NaHCO3, 10 mM MgCl2 and 10 mM propionyl-CoA or acetyl-CoA, 10 mM ATP added before freezing
[1] = target: the molecule itself
[2] = target: T1, human 3-methylcrotonyl-CoA carboxylase α subunit (human (endogenous in Expi 293F), UniProt Q96RQ3 42-725, biotin covalently linked to K681 (AMKM motif of the BCCP domain)); conditions: both partners purified
T1 construct: 3-methylcrotonyl-CoA carboxylase α subunit (MCCα), human, endogenous; holds the BC, BT and BCCP domains; Purified as part of the endogenous α6β6 MCC holoenzyme, in a mixture with the other biotin-dependent carboxylases; also called MCCα; α subunit of MCC; source: endogenous, Expi 293F cells, purified (Strep-Tactin XT resin, size-exclusion chromatography)
T1 sequence (looked up): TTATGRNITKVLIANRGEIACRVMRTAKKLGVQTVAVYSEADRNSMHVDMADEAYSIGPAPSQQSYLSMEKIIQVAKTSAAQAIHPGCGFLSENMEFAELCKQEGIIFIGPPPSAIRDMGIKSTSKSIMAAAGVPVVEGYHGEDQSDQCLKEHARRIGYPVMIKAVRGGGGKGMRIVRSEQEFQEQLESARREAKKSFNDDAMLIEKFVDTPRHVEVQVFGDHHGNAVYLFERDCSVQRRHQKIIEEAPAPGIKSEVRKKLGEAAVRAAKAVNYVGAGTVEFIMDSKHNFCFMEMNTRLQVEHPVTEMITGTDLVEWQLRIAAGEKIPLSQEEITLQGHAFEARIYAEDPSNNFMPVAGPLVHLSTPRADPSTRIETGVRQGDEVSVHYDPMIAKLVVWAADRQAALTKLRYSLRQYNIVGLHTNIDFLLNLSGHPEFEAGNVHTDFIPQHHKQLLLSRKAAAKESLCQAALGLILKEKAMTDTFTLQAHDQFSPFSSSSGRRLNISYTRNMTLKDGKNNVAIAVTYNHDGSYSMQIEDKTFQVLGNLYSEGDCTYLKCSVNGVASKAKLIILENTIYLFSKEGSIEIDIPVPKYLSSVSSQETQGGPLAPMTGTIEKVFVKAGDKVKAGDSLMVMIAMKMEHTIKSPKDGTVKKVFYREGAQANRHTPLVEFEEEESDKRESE

[3] = target: T2, human propionyl-CoA carboxylase α subunit (human (endogenous in Expi 293F), UniProt P05165 53-728, biotin covalently linked to K694 (AMKM motif of the BCCP domain)); conditions: both partners purified
T2 construct: Propionyl-CoA carboxylase α subunit (PCCα), human, endogenous; holds the BC, BT and BCCP domains; Purified as part of the endogenous α6β6 PCC holoenzyme, in a mixture with the other biotin-dependent carboxylases; also called PCCα; α subunit of PCC; source: endogenous, Expi 293F cells, purified (Strep-Tactin XT resin, size-exclusion chromatography)
T2 sequence (looked up): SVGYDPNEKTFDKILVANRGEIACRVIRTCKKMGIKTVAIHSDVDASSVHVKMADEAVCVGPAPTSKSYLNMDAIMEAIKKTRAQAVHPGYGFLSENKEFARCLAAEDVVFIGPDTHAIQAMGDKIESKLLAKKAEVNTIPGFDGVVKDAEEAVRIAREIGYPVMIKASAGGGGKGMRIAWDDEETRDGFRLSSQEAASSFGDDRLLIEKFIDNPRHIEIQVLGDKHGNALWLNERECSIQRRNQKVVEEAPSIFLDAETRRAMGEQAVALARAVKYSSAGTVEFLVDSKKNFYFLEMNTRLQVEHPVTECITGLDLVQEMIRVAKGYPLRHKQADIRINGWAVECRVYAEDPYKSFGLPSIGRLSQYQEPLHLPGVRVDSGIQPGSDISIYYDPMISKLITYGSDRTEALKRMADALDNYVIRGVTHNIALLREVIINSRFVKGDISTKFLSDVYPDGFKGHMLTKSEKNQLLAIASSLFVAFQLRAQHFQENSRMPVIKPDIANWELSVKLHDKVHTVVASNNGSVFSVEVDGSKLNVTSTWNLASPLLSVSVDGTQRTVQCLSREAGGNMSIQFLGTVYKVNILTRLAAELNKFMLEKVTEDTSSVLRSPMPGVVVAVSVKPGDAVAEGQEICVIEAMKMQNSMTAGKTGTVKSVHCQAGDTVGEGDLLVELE

- binding result [2]: binds
B1: human 3-methylcrotonyl-CoA carboxylase β subunit (natural protein, human (endogenous in Expi 293F), UniProt Q9HCC0 23-563, looked up)
chain: YHGDSVASLGTQPDLGSALYQENYKQMKALVNQLHERVEHIKLGGGEKARALHISRGKLLPRERIDNLIDPGSPFLELSQFAGYQLYDNEEVPGGGIITGIGRVSGVECMIIANDATVKGGAYYPVTVKKQLRAQEIAMQNRLPCIYLVDSGGAYLPRQADVFPDRDHFGRTFYNQAIMSSKNIAQIAVVMGSCTAGGAYVPAMADENIIVRKQGTIFLAGPPLVKAATGEEVSAEDLGGADLHCRKSGVSDHWALDDHHALHLTRKVVRNLNYQKKLDVTIEPSEEPLFPADELYGIVGANLKRSFDVREVIARIVDGSRFTEFKAFYGDTLVTGFARIFGYPVGIVGNNGVLFSESAKKGTHFVQLCCQRNIPLLFLQNITGFMVGREYEAEGIAKDGAKMVAAVACAQVPKITLIIGGSYGAGNYGMCGRAYSPRFLYIWPNARISVMGGEQAANVLATITKDQRAREGKQFSSADEAALKEPIIKKFEEEGNPYYSSARVWDDGIIDPADTRLVLGLSFSAALNAPIEKTDFGIFRM
notes: 3-methylcrotonyl-CoA carboxylase β subunit (MCCβ), human, endogenous; CT domain (CT-N and CT-C subdomains); Co-purified with the biotinylated α subunit as the endogenous α6β6 MCC holoenzyme; also called MCCβ; β subunit of MCC; source: endogenous, Expi 293F cells, purified (Strep-Tactin XT resin, size-exclusion chromatography)
- stoichiometry N [1]: 6

- binding result [3]: binds
B2: human propionyl-CoA carboxylase β subunit (natural protein, human (endogenous in Expi 293F), UniProt P05166 29-539, looked up)
chain: CSQATSVNERIENKRRTALLGGGQRRIDAQHKRGKLTARERISLLLDPGSFVESDMFVEHRCADFGMAADKNKFPGDSVVTGRGRINGRLVYVFSQDFTVFGGSLSGAHAQKICKIMDQAITVGAPVIGLNDSGGARIQEGVESLAGYADIFLRNVTASGVIPQISLIMGPCAGGAVYSPALTDFTFMVKDTSYLFITGPDVVKSVTNEDVTQEELGGAKTHTTMSGVAHRAFENDVDALCNLRDFFNYLPLSSQDPAPVRECHDPSDRLVPELDTIVPLESTKAYNMVDIIHSVVDEREFFEIMPNYAKNIIVGFARMNGRTVGIVGNQPKVASGCLDINSSVKGARFVRFCDAFNIPLITFVDVPGFLPGTAQEYGGIIRHGAKLLYAFAEATVPKVTVITRKAYGGAYDVMSSKHLCGDTNYAWPTAEIAVMGAKGAVEIIFKGHENVEAAQAEYIEKFANPFPAAVRGFVDDIIQPSSTRARICCDLDVLASKKVQRPWRKHANIPL
notes: Propionyl-CoA carboxylase β subunit (PCCβ), human, endogenous; CT domain (CT-N and CT-C subdomains); Co-purified with the biotinylated α subunit as the endogenous α6β6 PCC holoenzyme; also called PCCβ; β subunit of PCC; source: endogenous, Expi 293F cells, purified (Strep-Tactin XT resin, size-exclusion chromatography)
